Measured values from US20200368279.

Assays:
Experiment in all cases: cell_activity
[1] = tested on: SBS75606 ZFN; conditions: pair with SBS75609, K562, 15 ug/mL mRNA; 70.1 at 3.75 ug/mL
[2] = tested on: SBS75714 ZFN; conditions: pair with SBS75715, K562, 15 ug/mL mRNA; 84.0 at 3.75 ug/mL
[3] = tested on: SBS75895 ZFN; conditions: pair with SBS75893, K562, 15 ug/mL mRNA; 76.6 at 3.75 ug/mL
[4] = tested on: SBS75609 ZFN; conditions: pair with SBS75606, K562, 15 ug/mL mRNA; 70.1 at 3.75 ug/mL
[5] = tested on: SBS75592 ZFN; conditions: pair with SBS75591, K562, 15 ug/mL mRNA; 80.0 at 3.75 ug/mL
[6] = tested on: SBS75715 ZFN; conditions: pair with SBS75714, K562, 15 ug/mL mRNA; 84.0 at 3.75 ug/mL
[7] = tested on: SBS75893 ZFN; conditions: pair with SBS75895, K562, 15 ug/mL mRNA; 76.6 at 3.75 ug/mL
[8] = tested on: SBS75591 ZFN; conditions: pair with SBS75592, K562, 15 ug/mL mRNA; 80.0 at 3.75 ug/mL

## AAGGAGGTGCTCCTGGAATTACTTAGCA (double strand) [SBS75606 target]
[1]
  activity: 91.4 % indels

## AGGGATGGGATGACTTGGCTTTAGGTCA (double strand) [SBS75714 target]
[2]
  activity: 90.7 % indels

## AGGTTGGGAGTGGGGTCTTGTTCAGGGC (double strand) [SBS75895 target]
[3]
  activity: 91.3 % indels

## CTCCCCTGACCAAGGAAAATCGGGGTGG (double strand) [SBS75609 target]
[4]
  activity: 91.4 % indels

## GCTAAGTAATTCCAGGAGCACCTCCTTT (double strand) [SBS75592 target]
[5]
  activity: 91.2 % indels

## GGACTCAGGTGGGGGGTCTAGGGGTGAG (double strand) [SBS75715 target]
[6]
  activity: 90.7 % indels

## GGGCTAGGGCTGAAGTGAGGTGAAAGGT (double strand) [SBS75893 target]
[7]
  activity: 91.3 % indels

## TCGGCCATCAGAAGGGAGGGACCCTGCT (double strand) [SBS75591 target]
[8]
  activity: 91.2 % indels
